# T1: Terbium (Tb) labeled-SNAP tagged ROBO2 expressed on HEK293 cells (Homo sapiens (Human), UniProt Q9HCK4 22-1378, terbium label on the SNAP tag)
# T1 construct: also called Tb-labeled ROBO2 cells; ROBO2 expressing cells; not shown: SNAP tag
# T1 sequence: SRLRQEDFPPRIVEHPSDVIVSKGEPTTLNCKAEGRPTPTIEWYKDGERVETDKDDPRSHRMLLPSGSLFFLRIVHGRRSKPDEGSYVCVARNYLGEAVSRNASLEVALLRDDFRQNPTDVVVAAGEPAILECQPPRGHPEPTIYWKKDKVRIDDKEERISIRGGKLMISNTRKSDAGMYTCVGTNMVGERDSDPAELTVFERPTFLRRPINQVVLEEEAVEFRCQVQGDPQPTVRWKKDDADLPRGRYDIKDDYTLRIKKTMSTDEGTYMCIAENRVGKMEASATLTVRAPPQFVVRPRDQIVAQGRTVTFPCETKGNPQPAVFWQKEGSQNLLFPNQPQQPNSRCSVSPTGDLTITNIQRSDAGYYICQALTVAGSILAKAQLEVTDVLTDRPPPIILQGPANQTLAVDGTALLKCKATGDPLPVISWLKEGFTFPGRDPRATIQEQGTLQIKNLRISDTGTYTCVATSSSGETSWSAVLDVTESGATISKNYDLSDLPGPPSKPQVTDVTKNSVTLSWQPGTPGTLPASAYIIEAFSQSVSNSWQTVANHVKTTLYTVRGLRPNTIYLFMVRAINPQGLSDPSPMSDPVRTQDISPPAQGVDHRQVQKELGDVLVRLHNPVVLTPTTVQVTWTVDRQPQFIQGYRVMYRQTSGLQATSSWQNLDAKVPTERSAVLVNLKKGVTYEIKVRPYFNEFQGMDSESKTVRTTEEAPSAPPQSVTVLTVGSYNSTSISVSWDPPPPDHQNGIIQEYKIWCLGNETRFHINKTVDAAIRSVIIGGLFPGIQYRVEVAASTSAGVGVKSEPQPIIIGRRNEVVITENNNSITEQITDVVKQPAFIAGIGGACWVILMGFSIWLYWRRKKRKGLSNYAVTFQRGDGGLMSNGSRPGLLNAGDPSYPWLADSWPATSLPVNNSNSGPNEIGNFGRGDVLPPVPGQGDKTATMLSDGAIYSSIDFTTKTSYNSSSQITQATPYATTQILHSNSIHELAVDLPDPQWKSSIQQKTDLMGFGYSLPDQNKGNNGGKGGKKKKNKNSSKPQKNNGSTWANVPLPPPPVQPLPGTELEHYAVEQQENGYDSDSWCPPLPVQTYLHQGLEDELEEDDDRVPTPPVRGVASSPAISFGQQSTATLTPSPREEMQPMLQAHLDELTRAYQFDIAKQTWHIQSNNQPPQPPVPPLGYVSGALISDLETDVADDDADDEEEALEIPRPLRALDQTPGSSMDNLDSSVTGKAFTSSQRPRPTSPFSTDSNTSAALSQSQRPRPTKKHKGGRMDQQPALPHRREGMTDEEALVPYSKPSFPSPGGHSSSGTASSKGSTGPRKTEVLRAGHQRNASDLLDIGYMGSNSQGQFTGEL
# T2: Human ROBO2 Ig1-Ig2-His (human, UniProt Q9HCK4 31-220)
# T2 construct: the His tag is named only in the SPR paragraphs; the Octet and ELISA paragraphs print 'ROBO2 Ig1-Ig2' without a tag; also called ROBO2 Ig1-2; Human ROBO2 Ig 1,2
# T2 sequence: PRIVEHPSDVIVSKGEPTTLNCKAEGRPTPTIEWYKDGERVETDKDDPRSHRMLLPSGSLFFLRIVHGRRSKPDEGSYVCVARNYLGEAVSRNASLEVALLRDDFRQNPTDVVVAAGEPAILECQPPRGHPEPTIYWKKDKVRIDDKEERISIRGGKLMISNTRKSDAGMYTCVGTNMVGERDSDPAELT
# T3: Human ROBO2 overexpressed on HEK293 cells (human, UniProt Q9HCK4 22-1378)
# T3 construct: also called ROBO2 cells; native ROBO2
# T3 sequence: T1 sequence
# B1: SLIT2-N (ligand)
# chain: QCSCSGSTVDCHGLALRSVPRNIPRNTERLDLNGNNITRITKTDFAGLRHLRVLQLMENKISTIERGAFQDLKELERLRLNRNHLQLFPELLFLGTAKLYRLDLSENQIQAIPRKAFRGAVDIKNLQLDYNQISCIEDGAFRALRDLEVLTLNNNNITRLSVASFNHMPKLRTFRLHSNNLYCDCHLAWLSDWLRQRPRVGLYTQCMGPSHLRGHNVAEVQKREFVCSGHQSFMAPSCSVLHCPAACTCSNNIVDCRGKGLTEIPTNLPETITEIRLEQNTIKVIPPGAFSPYKKLRRIDLSNNQISELAPDAFQGLRSLNSLVLYGNKITELPKSLFEGLFSLQLLLLNANKINCLRVDAFQDLHNLNLLSLYDNKLQTIAKGTFSPLRAIQTMHLAQNPFICDCHLKWLADYLHTNPIETSGARCTSPRRLANKRIGQIKSKKFRCSAKEQYFIPGTEDYRSKLSGDCFADLACPEKCRCEGTTVDCSNQKLNKIPEHIPQYTAELRLNNNEFTVLEATGIFKKLPQLRKINFSNNKITDIEEGAFEGASGVNEILLTSNRLENVQHKMFKGLESLKTLMLRSNRITCVGNDSFIGLSSVRLLSLYDNQITTVAPGAFDTLHSLSTLNLLANPFNCNCYLAWLGEWLRKKRIVTGNPRCQKPYFLKEIPIQDVAIQDFTCDDGNDDNSCSPLSRCPTECTCLDTVVRCSNKGLKVLPKGIPRDVTELYLDGNQFTLVPKELSNYKHLTLIDLSNNRISTLSNQSFSNMTQLLTLILSYNRLRCIPPRTFDGLKSLRLLSLHGNDISVVPEGAFNDLSALSHLAIGANPLYCDCNMQWLSDWVKSEYKEPGIARCAGPGEMADKLLLTTPSKKFTCQGPVDVNILAKCNPCLSNPCKNDGTCNSDPVDFYRCTCPYGFKGQDCDVPIHACISNPCKHGGTCHLKEGEEDGFWCICADGFEGENCEVNVDDCEDNDCENNSTCVDGINNYTCLCPPEYTGELCEEKLDFCAQDLNPCQHDSKCILTPKGFKCDCTPGYVGEHCDIDFDDCQDNKCKNGAHCTDAVNGYTCICPEGYSGLFCEFSPPMVLPRTSPCDNFDCQ
# modifications: d2 label in the HTRF assay
# notes: also called d2-labeled SLIT2-N
# B2: Ab123 (antibody, human IgG1, kappa, V domains shown)
# VH: EVQLVQSGAEVKKPGASVKVSCKASGYTFTGYYMHWVRQAPGQGLEWMGWINPNSGATNFPQKFQGRVTMTRDTSITTAYMDLSRLRSDDTAVYYCARESGDDAFDIWGQGTMVTVSS
# VL: DIVMTQSPSSLSASVGDRVTITCRASQSISSYLNWYQQKPGKAPKLLIYAASSLQSGVPSRFSGSGSGTDFTLTISSLQPEDFATYYCQQSVGLFFGGGTKVEIKR
# notes: full-length human IgG
# Legend:
# [1] = target: T1, Terbium (Tb) labeled-SNAP tagged ROBO2 …; assay: HTRF, 5 nM d2-SLIT2-N on Tb-SNAP-ROBO2 HEK293 cells, no antibody (maximal signal)
# Experimental: In this assay, terbium (Tb) labeled-SNAP tagged ROBO2 expressing HEK293 cells were incubated with 5 nM d2-labeled SLIT-2N in the presence of 1 nM anti-ROBO2 antibodies for 1 hour. After incubation, fluorescence at 665 nm and 620 nm was measured on an Envision multilabel plate reader. […] Maximal signal was defined as the HTRF ratio of Tb-labeled ROBO2 cells with d2-labeled SLIT2-N in the absence of antibody, the minimum signal was defined as the HTRF ratio of Tb-labeled ROBO2 expressing HEK293 cells only. One nanomolar (nM) parental antibody, 93H2, was unable to block the HTRF assay, therefore this concentration was selected to identify clones with a higher affinity than 93H2 (Table 2, HTRF Ratio column). […] Antibodies derived from chain (Abcs series) or CDR shuffling (CTIR-2 series) were evaluated in 11-point, 5-fold dilution series with a top concentration of 1500 nM (Table 2 HTRF IC₅₀).
# (§1) HTRF assays were run with 5 nM d2-labeled SLIT2-N and antibodies were added at 1 nM. […] Antibodies derived from chain (Abcs series) or CDR shuffling (CTIR-2 series) were evaluated in 11-point, 5-fold dilution series with a top concentration of 1500 nM, N.T. = not tested; ^cFold selectivity was calculated as Geometric Mean Fluorescent Intensity (Geo MFI) of ROBO2/Geo MFI of ROBO1 binding.
# Human ROBO2 Ig1-Ig2-His = target: T2, Human ROBO2 Ig1-Ig2-His; assay: Octet (BLI), relative Kd
# [2] = target: T1, Terbium (Tb) labeled-SNAP tagged ROBO2 …; assay: HTRF competition, competitor d2-SLIT2-N, ROBO2 HEK293 cells
# How it was run: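 HEK293 cells expressing Tb-labeled SNAP-ROBO2 were incubated 1 hour with 5 nM d2-SLIT2-N plus antibody, read as the 665/620 nm HTRF ratio. Controls were no antibody (maximal) and cells alone (minimal). Screening used 1 nM antibody; IC₅₀ came from 11-point, 5-fold dilutions starting at 1500 nM.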
# [3] = target: T3, Human ROBO2 overexpressed on HEK293 …; assay: flow cytometry, Geo MFI ROBO2/ROBO1 HEK293 cells, 0.1 µg/ml
# Experimental: Binding of the antibodies was detected using a secondary fluorochrome conjugated anti-human IgG F(ab′)₂ antibody and samples were analyzed on a Fortessa cytometer (BD Biosciences). The fold ROBO2 selectivity was calculated as the geometric mean fluorescence intensity (Geo MFI) with ROBO2 cells/Geo MFI with ROBO1 cells. A fold change higher than 3 was considered to be ROBO2 specific (Table 2, Fold Selectivity). Some affinity matured clones had increased ROBO1 reactivity, for example Abcs 55, CTI-R2-10 and CTIR2-13.
# as §1, with “binding. […] Outcomes: results are listed in order of assays listed in the table (left to right), I.A. = Improved Affinity” for “binding.”
# [4] = target: T1, Terbium (Tb) labeled-SNAP tagged ROBO2 …; assay: HTRF, 5 nM d2-SLIT2-N on Tb-SNAP-ROBO2 HEK293 cells, 1 nM antibody
# How it was run: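 Tb-SNAP-ROBO2 HEK293 cells incubated 1 hour with 5 nM d2-SLIT2-N, with 1 nM anti-ROBO2 antibody or none (maximal signal); cells alone gave minimum. HTRF read at 665/620 nm; IC50 series used 11-point, 5-fold dilutions from 1500 nM.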
Binder,HTRF Ratio [1],Kd (Human ROBO2 Ig1-Ig2-His),IC50 [2],Fold Selectivity for ROBO2/ROBO1 [3],HTRF Ratio [4]
B1,11900,,,,
B2,,1.4 nM,0.26 nM,80.5 fold,7710

# From US20200157212A1 (Pfizer, published 2020)
